Reference: patent publication US20150299252A1
Where no end group is shown, it is not given here.

T1: lectin MAA from Maackia amurensis (Maackia amurensis), P0DKL3
T1 chain: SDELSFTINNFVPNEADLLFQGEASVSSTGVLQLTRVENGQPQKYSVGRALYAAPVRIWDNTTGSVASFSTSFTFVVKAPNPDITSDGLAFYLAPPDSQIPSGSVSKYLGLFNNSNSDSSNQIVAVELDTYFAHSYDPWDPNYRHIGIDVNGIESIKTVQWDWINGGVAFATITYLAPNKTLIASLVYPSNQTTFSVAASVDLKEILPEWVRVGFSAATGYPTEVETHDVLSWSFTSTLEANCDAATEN

B1: biotinylated SVH1C (quadravalent, C-terminal ε-biotinyl-lysine amide) (peptide)
peptide: NPSHPLSGGGGS
chain: KKKK
modifications: not fully specified (some residues, C-terminus); also: quadravalent: four peptide copies on lysine scaffold

Columns and labels:
[1] = target: lectin SNA1 from Sambucus nigra (Sambucus nigra) (UniProt Q41358)
[2] = target: lectin MAA from Maackia amurensis (Maackia amurensis) (UniProt P0DKL3); assay: solid-phase competition; fetuin against SVH1C for MAA
[3] = target: lectin MAA from Maackia amurensis (Maackia amurensis) (UniProt P0DKL3); assay: solid-phase competition; fetuin against 100 pmoles of SVH1C on streptavidin for peroxidase-conjugated MAA
[4] = target: T1, lectin MAA from Maackia amurensis …; assay: solid-phase assay, peptide titrated into wells containing bound lectin
[5] = target: lectin SNA1 from Sambucus nigra (Sambucus nigra), Q41358; assay: as above
lectin SNA1 from Sambucus nigra (Sambucus nigra), Q41358, sequence (Q41358 29-289 limits assumed, chain 1 of 2): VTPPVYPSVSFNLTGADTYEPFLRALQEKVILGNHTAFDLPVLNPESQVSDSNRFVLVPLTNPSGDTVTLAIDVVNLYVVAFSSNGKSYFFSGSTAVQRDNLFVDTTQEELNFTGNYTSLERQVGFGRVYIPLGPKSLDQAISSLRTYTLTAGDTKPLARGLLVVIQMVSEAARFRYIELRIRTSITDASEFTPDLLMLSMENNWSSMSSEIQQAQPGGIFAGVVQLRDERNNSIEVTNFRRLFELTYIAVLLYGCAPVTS
lectin SNA1 from Sambucus nigra (Sambucus nigra), Q41358, sequence (Q41358 309-570 limits assumed, chain 2 of 2): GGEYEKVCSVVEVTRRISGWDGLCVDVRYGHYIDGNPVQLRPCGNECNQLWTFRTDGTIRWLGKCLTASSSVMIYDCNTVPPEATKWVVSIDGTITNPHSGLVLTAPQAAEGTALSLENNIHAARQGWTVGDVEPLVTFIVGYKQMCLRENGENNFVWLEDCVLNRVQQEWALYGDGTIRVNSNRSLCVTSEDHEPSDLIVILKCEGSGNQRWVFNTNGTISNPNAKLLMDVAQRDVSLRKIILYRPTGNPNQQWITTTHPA

lectin SNA1 from Sambucus nigra (Sambucus nigra), sequence (Q41358 29-289 limits assumed, chain 1 of 2): as the sequence (Q41358 29-289 limits assumed, chain 1 of 2) above
lectin SNA1 from Sambucus nigra (Sambucus nigra), sequence (Q41358 309-570 limits assumed, chain 2 of 2): as the sequence (Q41358 309-570 limits assumed, chain 2 of 2) above

Molecule | amount of fetuin giving essentially complete inhibition (pmoles of fetuin per well) [1] | percent inhibition at 100 pmoles fetuin per well [1] | percent inhibition at a 5-fold molar excess of fetuin over peptide [2] | amount of fetuin giving essentially complete inhibition (pmoles of fetuin per well) [3] | percent inhibition at 100 pmoles fetuin per well [3] | amount of peptide at saturation [4] | amount of peptide at saturation [5]
fetuin (from UniProt P12763 19-359) | 500 | 50% | 90% | 500 | 50% |  | 
B1 |  |  |  |  |  | 100 pmol | 100 pmol
